The values that follow come from paper PMC5454378, “Histone deacetylase 10 structure and molecular function as a polyamine deacetylase” (Nature Communications, 2017).

What all share (assay): purified protein, by the assay type
Substrate in series [1]: CC(=O)NCCCC[C@H](NC(=O)[C@H](C)NC(=O)CNC(C)=O)C(=O)N[C@@H](CC(N)=O)C(=O)N[C@@H](CC(C)C)C(=O)N[C@@H](CCC(N)=O)C(N)=O
Set-up: discontinuous LC-MS deacetylation assay, dansylated product quantified, steady-state kinetics. The conditions noted are these: 50.0 °C. As to the method: (§1) To study steady-state kinetics with non-fluorogenic peptide substrates and acetylpolyamines, a discontinuous LC–MS was employed based on the protocol of assaying nonfluorogenic acetyllysine peptide substrates for HDAC6 (ref. [17]). Assays were performed in triplicate. Briefly, 5 μl of enzyme (0.050–20 μM) in HEPES buffer (20 mM HEPES (pH 7.5), 100 mM NaCl, 5 mM KCl, 1 mM MgCl2) was added to 35 μl of substrate solution to initiate the reaction. […] The deacetylation products were derivatized with dansyl chloride at 50 °C for 2 hrs. The deacetylation products were detected by LC–MS using a Waters SQD equipped with an Acquity UPLC (Waters, Milford, MA, USA) and quantified by using the standard curves generated from the mass signals of the corresponding deacetylated polyamines and peptides. Inhibition of HDAC10 activity was measured by using 0.49 μM zHDAC10 with 192 μM N^8-acetylspermidine. Data were analysed by logistic regression for IC50 determination and the inhibition constant Ki was calculated based on the Cheng-Prusoff equation, Ki=IC50 / (1+[S]/KM)[45]. Assays were performed in triplicate at room temperature.

Substrate in series [2]: CC(=O)NCCCNCCCCNCCCN
Set-up: steady-state kinetics of acetylpolyamine deacetylation, discontinuous LC-MS after dansyl chloride derivatization. As to the method:
(§2) To study steady-state kinetics with non-fluorogenic peptide substrates and acetylpolyamines, a discontinuous LC–MS was employed based on the protocol of assaying nonfluorogenic acetyllysine peptide substrates for HDAC6 (ref. [17]). Assays were performed in triplicate. Briefly, 5 μl of enzyme (0.050–20 μM) in HEPES buffer (20 mM HEPES (pH 7.5), 100 mM NaCl, 5 mM KCl, 1 mM MgCl2) was added to 35 μl of substrate solution to initiate the reaction. After incubation for 15–60 min at room temperature, the reaction was quenched by addition of 50 μl of 20 mM dansyl chloride dissolved in acetonitrile followed by 10 μl of NaHCO3 (1.6 M, pH 10.0). The deacetylation products were derivatized with dansyl chloride at 50 °C for 2 hrs. The deacetylation products were detected by LC–MS using a Waters SQD equipped with an Acquity UPLC (Waters, Milford, MA, USA) and quantified by using the standard curves generated from the mass signals of the corresponding deacetylated polyamines and peptides. Inhibition of HDAC10 activity was measured by using 0.49 μM zHDAC10 with 192 μM N^8-acetylspermidine. Data were analysed by logistic regression for IC50 determination and the inhibition constant Ki was calculated based on the Cheng-Prusoff equation, Ki=IC50 / (1+[S]/KM)[45]. Assays were performed in triplicate at room temperature. We next tested the PDAC activity of hHDAC10 and zHDAC10 against several polyamine substrates using the LC–MS assay (Fig. 2, Supplementary Fig. 3 and Supplementary Table 1). […] For hHDAC10 and zHDAC10, kcat/KM=2,900±200 and 4,600±300 M^−1 s^−1, respectively; in comparison, N^1-acetylspermidine was a poor substrate with kcat/KM=24±5 and 7±2 M^−1 s^−1, respectively. Substrate specificity trends observed for zHDAC10 and hHDAC10 matched those of the previously reported mammalian N^8-acetylspermidine deacetylase activity. […] As a negative control, we examined the N^8-acetylspermidine deacetylase activity of human and zebrafish HDAC6 (ref. [17]). HDAC6 preferentially catalyses the deacetylation of the peptide substrate RGK(ac)-AMC with a catalytic efficiency >100-fold greater than that for the deacetylation of N^8-acetylspermidine. Therefore, HDAC6 is clearly an acetyllysine deacetylase and HDAC10 is an N^8-acetylspermidine deacetylase. It is notable that the molecular function of HDAC10 coincides with the cellular function of the cytosolic PDAC indicated in Fig. 1a.

Substrate in series [3]: CC(=O)NCCCCNCCCNC(C)=O
Also noted: steady-state kinetics of acetylpolyamine deacetylation, discontinuous LC-MS after dansyl chloride derivatization. As to the method: as §2

Substrate in series [4]: CC(=O)NCCCCNCCCN
Also noted: steady-state kinetics of acetylpolyamine deacetylation, discontinuous LC-MS after dansyl chloride derivatization. The method, then:
as §2

Substrate in series [5]: CC(=O)NCCCCN
Set-up: steady-state kinetics of acetylpolyamine deacetylation, discontinuous LC-MS after dansyl chloride derivatization. As to the method:
as §2

Substrate in series [6]: CC(=O)NCCCCCCCCN
Set-up: steady-state kinetics of acetylpolyamine deacetylation, discontinuous LC-MS after dansyl chloride derivatization. As to the method:
as §2

Substrate in series [7]: CC(=O)NCCCCCN
Set-up: steady-state kinetics of acetylpolyamine deacetylation, discontinuous LC-MS after dansyl chloride derivatization. The method, then:
as §2

Substrate in series [8]: CC(=O)NCCCC[C@H](NC(=O)[C@H](C)NC(C)=O)C(=O)N[C@@H](C)C(N)=O
Also noted: discontinuous LC-MS deacetylation assay, dansylated product quantified, steady-state kinetics. The settings on record: 50.0 °C. As to the method:
as §1

Substrate in series [9]: CC(=O)NCCCC[C@H](NC(C)=O)C(N)=O
Set-up: discontinuous LC-MS deacetylation assay, dansylated product quantified, steady-state kinetics. The conditions noted are these: 50.0 °C. The method, then: as §1

Substrate in series [10]: CC(=O)NCCCC[C@H](NC(=O)[C@H](C)NC(=O)CNC(C)=O)C(=O)Nc1ccc2c(C)cc(=O)oc2c1
Also noted: fluorogenic AMC-conjugated acetyllysine peptide deacetylation, steady-state kinetics. An excerpt:
To determine steady-state kinetic parameters for the hydrolysis of a variety of acetylpolyamine and acetyllysine substrates, we prepared full-length recombinant HDAC10 from human (H. sapiens, hHDAC10) and zebrafish (D. rerio, zHDAC10). The CDs of these orthologues are highly similar based on 63%/79% sequence identity/similarity; only full-length constructs yielded soluble proteins. We first assayed the lysine deacetylase activity of these constructs against two commercially available aminomethylcoumarin (AMC)-conjugated fluorogenic acetyllysine peptides, GAK(ac)-AMC and RGK(ac)-AMC (molecular structures of all substrates are shown in Supplementary Fig. 2). […] These measurements were consistent with earlier studies reporting that HDAC10 activity was not measurable using fluorogenic peptide substrates. We also tested activity with 11 non-fluorogenic acetyllysine substrates using a […] chromatography–mass spectrometry (LC–MS)-based discontinuous assay[17] to avoid potential steric clashes that might occur with the bulky AMC group. These substrates included K(ac)NL and GAK(ac)NLQ, which mimic the peptide segment containing K73 in the proposed HDAC10 substrate MutS homologue 2 (MSH2)[22]. Again, we observed no or very low catalytic activity (Fig. 2 and Supplementary Table 1). In comparison with its closest relative, the cytosolic isozyme HDAC6 (ref. [17]), HDAC10 was clearly not an efficient lysine deacetylase.

B1: zHDAC6 CD2 (Danio rerio) (protein)
chain: MDAVPDTKGSSGPPRGTPETKNNKKNLQEARRKGRMDRSKAEEEMSNELQNLDVQGKSKATGTGLVYVDAFTRFHCLWDASHPECPARVSTVMEMLETEGLLGRCVQVEARAVTEDELLLVHTKEYVELMKSTQNMTEEELKTLAEKYDSVYLHPGFFSSACLSVGSVLQLVDKVMTSQLRNGFSINRPPGHHAQADKMNGFCMFNNLAIAARYAQKRHRVQRVLIVDWDVHHGQGIQYIFEEDPSVLYFSVHRYEDGSFWPHLKESDSSSVGSGAGQGYNINLPWNKVGMESGDYITAFQQLLLPVAYEFQPQLVLVAAGFDAVIGDPKGGMQVSPECFSILTHMLKGVAQGRLVLALEGGYNLQSTAEGVCASMRSLLGDPCPHLPSSGAPCESALKSISKTISDLYPFWKSLQTFEGGPLSEVSPLPAPVCAEVKVSSPITGLVYDQRMMLHHNMWDSHHPELPQRISRIFSRHEELRLLSRCHRIPARLATEEELALCHSSKHISIIKSSEHMKPRDLNRLGDEYNSIFISNESYTCALLAAGSCFNSAQAILTGQVRNAVAIVRPPGHHAEKDTACGFCFFNTAALTARYAQSITRESLRVLIVDWDVHHGNGTQHIFEEDDSVLYISLHRYEDGAFFPNSEDANYDKVGLGKGRGYNVNIPWNGGKMGDPEYMAAFHHLVMPIAREFAPELVLVSAGFDAARGDPLGGFQVTPEGYAHLTHQLMSLAAGRVLIILEGGYNLTSISESMSMCTSMLLGDSPPSLDHLTPLKTSATVSINNVLRAHAPFWSSLRVNIPESLRLSLPSPKPKGKCTPGGKGKKSPRQSTPSQSPGQATHRPDQSGFDELTADLLSLNLNTSTSSNTSPESVAVGGARRKVKPNTHRVSAGLESESPLKLNPEKAGAGDDTDVKAETPNRSISEPVVTCDSSAVKDQESLVLEAAGGNTVQSVLERVFGAQATDVDTMYVVDPLPWCPHLESVRPVPAGGIDVFQPCEECGGEAENWICLFCYKVLCGRYVNQHMVTHGQESGHPVVLSFADLSVWCYACESYVHNKVLHEAKNAAHLVKFGEGIHPFN
notes: catalytic domain 2
As for B1, in series [1], the Km (commonly the concentration of substrate that gives half-maximal velocity) stood at 150 ± 20 µM; the kcat (commonly the number of substrate molecules converted per active site and unit of time at saturation) was 1.26 ± 0.07 s⁻¹; the kcat/Km (in general, the turnover number divided by the Michaelis constant) came to 8300 M⁻¹ s⁻¹.

B2: hHDAC10 (Homo sapiens) (protein)
chain: GTALVYHEDMTATRLLWDDPECEIERPERLTAALDRLRQRGLEQRCLRLSAREASEEELGLVHSPEYVSLVRETQVLGKEELQALSGQFDAIYFHPSTFHCARLAAGAGLQLVDAVLTGAVQNGLALVRPPGHHGQRAAANGFCVFNNVAIAAAHAKQKHGLHRILVVDWDVHHGQGIQYLFEDDPSVLYFSWHRYEHGRFWPFLRESDADAVGRGQGLGFTVNLPWNQVGMGNADYVAAFLHLLLPLAFEFDPELVLVSAGFDSAIGDPEGQMQATPECFAHLTQLLQVLAGGRVCAVLEGGYHLESLAESVCMTVQTLLGDPAPPLSGPMAPCQSALESIQSARAAQAPHWKSLQQQDVTAVPMSPSSHSPEGRPPPLLPGGPVCKAAASAPSSLLDQPCLCPAPSVRTAVALTTPDITLVLPPDVIQQEASALREETEAWARPHESLAREEALTALGKLLYLLDGMLDGQVNSGIAATPASAAAATLDVAVRRGLSHGAQRLLCVALGQLDRPPDLAHDGRSLWLNIRGKEAAALSMFHVSTPLPVMTGGFLSCILGLVLPLAYGFQPDLVLVALGPGHGLQGPHAALLAAMLRGLAGGRVLALLEENSTPQLAGILARVLNGEAPPSLGPSSVASPEDVQALMYLRGQLEPQWKMLQCHPHLVA
notes: full-length, residues 2–669, MBP fusion
B2: the kcat in series [2] (50.0 °C) stood at 0.011 ± 0.002 s⁻¹; in series [3] (50.0 °C), 0.14 ± 0.08 s⁻¹; in [4] (50.0 °C), 0.28 ± 0.02 s⁻¹; in series [5] (50.0 °C), 0.35 ± 0.04 s⁻¹; in [6] (50.0 °C), 0.1 ± 0.02 s⁻¹; in [7] (50.0 °C), 0.14 ± 0.02 s⁻¹. Besides, the results for the kcat in series [8], in [9] and in [10] were 0.0006 ± 0.0001 s⁻¹, 0.0092 ± 0.0008 s⁻¹ and 0.00038 ± 2e-05 s⁻¹, respectively. For the same protein, the kcat/Km came out at 60 ± 10 M⁻¹ s⁻¹ in [2] (50.0 °C); 900 ± 300 M⁻¹ s⁻¹ in [3] (50.0 °C); 2900 ± 200 M⁻¹ s⁻¹ in series [4] (50.0 °C); 2100 ± 300 M⁻¹ s⁻¹ in series [5] (50.0 °C); 620 ± 50 M⁻¹ s⁻¹ in series [6] (50.0 °C); 1300 ± 200 M⁻¹ s⁻¹ in series [7] (50.0 °C). Further, the values for the kcat/Km in [8], in series [9] and in series [10] were 11 ± 3 M⁻¹ s⁻¹, 66 ± 5 M⁻¹ s⁻¹ and 38 ± 2 M⁻¹ s⁻¹, respectively. Also, the Km in series [2] (room temperature) came out at 180 ± 20 µM; in [3] (room temperature) it was 150 ± 90 µM; in [4] (room temperature) it was 100 ± 10 µM; in series [5] (room temperature) it was 170 ± 50 µM; in [6] (room temperature), 160 ± 40 µM; in series [7] (room temperature) it was 110 ± 20 µM. Further, the figures for the Km in [8], in series [9] and in series [10] were 60 ± 20 µM, 140 ± 40 µM and 10 ± 1 µM, respectively.
